Reference: US20250092424A1 (University of Washington, published 2025)

Target: T1, design #8 (v-SNARE-like protein, v-SP; MPNN-redesigned VAMP2), SEQ ID NO: 8
T1 chain: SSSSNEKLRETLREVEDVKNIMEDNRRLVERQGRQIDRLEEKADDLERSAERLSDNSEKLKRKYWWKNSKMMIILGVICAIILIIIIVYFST
Assay: cell-based or functional assay

- cell-cell fusion assay (reporter luciferase), fold over parental SNARE complex: 10 fold
B1: design #94 (single-chain t-SNARE-like protein, sc-t-SP), SEQ ID NO: 94 (designed binder)
chain: SEREKEIDEGLDRVSEIVKELKKMAEEMRRMIEEQGRRIERIEEKAEEAKEKIEEANERAEKLLKDPGGSGGSEELKKLEKEGEKLKELVEELDREIKELKEGMERLREMFEEAAKLSEEALEIMRRTRKLSEEELEEAKQKAKEQEKEKALKEKGGSGGSGGSEKVKRELAQIEERHQQILELEEKIKELLEMFKELSEKIEEQGQKIDRIEDKVSKAKEHVEKGVEDTKKAVKYQSKARRKKIMIIICCVILGIVIASTVGGIFA
